To fix the notation:
T1: Human IL-11 (human, UniProt P20809 22-199)
T1 construct: Recombinant human IL-11 (GenScript Cat. No. Z03108-1) or IL-11 secreted by human cells; the mature form is said to have 178 residues; also called recombinant human IL-11; endogenously produced IL-11
T1 sequence: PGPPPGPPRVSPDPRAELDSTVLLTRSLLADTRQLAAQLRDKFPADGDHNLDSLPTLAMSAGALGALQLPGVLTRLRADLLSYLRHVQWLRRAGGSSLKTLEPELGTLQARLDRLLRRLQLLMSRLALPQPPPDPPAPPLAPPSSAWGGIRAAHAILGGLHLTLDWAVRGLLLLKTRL

T2: Mouse IL-11 (mouse, UniProt P47873 22-199, limits assumed)
T2 construct: also called murine IL-11; recombinant murine IL-11
T2 sequence (looked up): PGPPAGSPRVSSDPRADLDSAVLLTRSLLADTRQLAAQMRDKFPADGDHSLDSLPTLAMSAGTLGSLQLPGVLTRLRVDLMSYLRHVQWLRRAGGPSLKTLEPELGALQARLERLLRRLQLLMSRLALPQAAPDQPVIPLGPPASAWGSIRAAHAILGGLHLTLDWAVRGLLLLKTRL

B1: YU112-E07 (antibody)
chain: QVQLVQSGGGVVQPGRSLRLSCAASGFTFGSYGMHWVRQAPGKGLEWVAVISYDGSNKYYADSVKGRFTISRDNSKNTLYLQMNSLRAEDTAVYYCAKGSYYFDYWGQGTLVTVSSGSASAPKLEEGEFSEARVEIVMTQSPDSLAVSLGERATINCKSSQSVNSAYLAWYQHKPGQPPRLLIYGASRRVTGVPDRFSGSGSGTDFTLTISSLQPEDFATYYCQQSYSDPRWTFGQGTKVEIK
B2: YU100-E06 (antibody)
chain: QVQLVESGGGVVQPGRSLRLSCAASGFTFSSYGMHWVRQAPGKGLEWVAVISYDGSNKYYADSVKGRFTISRDNSKNTLYLQMNSLRAEDTAVYYCAKIGATDPLDYWGQGTLVTVSSGSASAPKLEEGEFSEARVQSALTQPASVSGFPEQSITISCTGTSSDVGGYDYVSWYQQHPGKAPKLMIYDVTNRPSGVSNRFSGSKSGNTASLTISGLQPEDEADYYCSSYTSNTTWVFGGGTKLTVLRQPKAAPSVTLFPPSS
B3: YU100-G08 (antibody, human IgG1, V domains shown)
VH: QVQLVQSGGGVVQPGRSLRLSCAASGFTFSSYGMHWVRQAPGKGLEWVAVISYDGSNKYYADSVKGRFTISRDNSKNTLYLQMNSLRAEDTAVYYCAKIGATDPLDYWGQGTLVTVSS
VL: QSALTQPRSVSGSPGQSVTLSCTGTSSDVGGYNYVSWYQHYPGKAPKLMIFDVNERSSGVPDRFSGSKSGNTASLTISGLQAEDEADYYCCSYAGRYTWMFGGGTKVTVLG
notes: Light chain shuffled human antibody; Only the variable domains are tied to the clone
B4: YU100-H01 (antibody, human IgG1, V domains shown)
VH: QVQLVQSGGGVVQPGRSLRLSCAASGFTFSSYAMHWVRQAPGKGLEWVAVISYDGSNKYYADSVKGRFTISRDNSKNTLYLQMNSLRAEDTAVYYCARIMGYDYGDYDVVDYWGQGTLVTVSS
VL: B3 VL with L20I, G31A, H40Q, Y41H, F51Y, N54S, S57P, R96S, M100V, V107L
notes: as for B3
B5: 02V (antibody, IgG1, V domains shown)
VH: B3 VH
VL: B3 VL with C91V
notes: C91V variant of the YU100-G08 VL
B6: 02G (antibody, IgG1, V domains shown)
VH: B3 VH
VL: B3 VL with C91G
notes: C91G variant of the YU100-G08 VL
B7: YU100-G08_02A (antibody, V domains shown)
VH: B3 VH
VL: B3 VL with C91A
notes: C91A variant of the YU100-G08 VL
B8: 02L (antibody, IgG1, V domains shown)
VH: B3 VH
VL: B3 VL with C91L
notes: C91L variant of the YU100-G08 VL
B9: 02Q (antibody, IgG1, V domains shown)
VH: B3 VH
VL: B3 VL with C91Q
notes: C91Q variant of the YU100-G08 VL
B10: 02T (antibody, IgG1, V domains shown)
VH: B3 VH
VL: B3 VL with C91T
notes: C91T variant of the YU100-G08 VL
B11: 02I (antibody, IgG1, V domains shown)
VH: B3 VH
VL: B3 VL with C91I
notes: C91I variant of the YU100-G08 VL
B12: 02S (antibody, IgG1, V domains shown)
VH: B3 VH
VL: B3 VL with C91S
notes: C91S variant of the YU100-G08 VL
B13: 01V (antibody, IgG1, V domains shown)
VH: B4 VH
VL: QSALTQPRSVSGSPGQSVTISCTGTSSDVGAYNYVSWYQQHPGKAPKLMIYDVSERPSGVPDRFSGSKSGNTASLTISGLQAEDEADYYCVSYAGSYTWVFGGGTKLTVLG
notes: C91V variant of the YU100-H01 VL
B14: 01T (antibody, IgG1, V domains shown)
VH: B4 VH
VL: B13 VL with V91T
notes: C91T variant of the YU100-H01 VL
B15: 01L (antibody, IgG1, V domains shown)
VH: B4 VH
VL: B13 VL with V91L
notes: C91L variant of the YU100-H01 VL
B16: 01Q (antibody, IgG1, V domains shown)
VH: B4 VH
VL: B13 VL with V91Q
notes: C91Q variant of the YU100-H01 VL
B17: 01I (antibody, IgG1, V domains shown)
VH: B4 VH
VL: B13 VL with V91I
notes: C91I variant of the YU100-H01 VL
B18: 01S (antibody, IgG1, V domains shown)
VH: B4 VH
VL: B13 VL with V91S
notes: C91S variant of the YU100-H01 VL
B19: 01A (antibody, IgG1, V domains shown)
VH: B4 VH
VL: B13 VL with V91A
notes: C91A variant of the YU100-H01 VL
B20: 01G (antibody, IgG1, V domains shown)
VH: B4 VH
VL: B13 VL with V91G
notes: C91G variant of the YU100-H01 VL

The source of these data is patent publication US20210230266A1 (SINGAPORE HEALTH SERVICES PTE, published 2021).

Where a chain is given by its changes, count along the chain named.

The first test has as its target T1, Human IL-11. As to the kind of experiment: ELISA. The procedure: (§1) The soluble scFv were produced by recombinant expression in E. coli, and analysed for their ability to bind to human IL-11 and murine IL-11 by ELISA. Briefly, the respective antigen was coated to wells of an ELISA plate, the cell culture supernatant containing the respective scFv was added at a 1:2 dilution, and binding was detected.
On the technique in general: An ELISA detects its analyte on a solid surface through an enzyme-linked reagent.
For the molecule B1, the “hIL11 - average signal” value amounted to 0.71.

With B2, the “hIL11 - average signal” value amounted to 0.173.

On to B3, for which the “hIL11 - average signal” value came to 0.153.

For the molecule B4, the “hIL11 - average signal” value was determined as 0.43.

The next test deals with T2, Mouse IL-11. As to the kind of experiment: ELISA. As to the method: as §1
B1: the “mIL11 - average signal” value amounted to 0.561.

B2: the “mIL11 - average signal” value is 0.309.

B3: the “mIL11 - average signal” value turned out to be 0.27.

As for B4, the “mIL11 - average signal” value turned out to be 0.283.

Another test deals with T1, Human IL-11. In words: cell-based or functional assay.
Take B1: the “MMP2 production, Experiment 1 (human atrial fibroblasts + TGFB1)” value was determined as 53.5 ng/mL and the “MMP2 production, Experiment 2 (human atrial fibroblasts + TGFB1)” value was 49.1 ng/mL.

On to B2, for which the “MMP2 production, Experiment 1 (human atrial fibroblasts + TGFB1)” value came out at 54.1 ng/mL and the “MMP2 production, Experiment 2 (human atrial fibroblasts + TGFB1)” value amounted to 48.2 ng/mL.

As for B3, the “MMP2 production, Experiment 1 (human atrial fibroblasts + TGFB1)” value turned out to be 42.3 ng/mL and the “MMP2 production, Experiment 2 (human atrial fibroblasts + TGFB1)” value is 38 ng/mL.

Take B4: the “MMP2 production, Experiment 1 (human atrial fibroblasts + TGFB1)” value was 48.3 ng/mL and the “MMP2 production, Experiment 2 (human atrial fibroblasts + TGFB1)” value was 42.2 ng/mL.

Another test deals with T1, Human IL-11. As to the kind of experiment: ELISA on coated recombinant human IL-11 (100 ng/well), scFv-Fc. As to the method: The light chain shuffled anti-IL-11 antibodies were analysed to determine the EC50 for binding to human IL-11 by ELISA according to standard methods. Briefly, wells of microtiter plates were coated with recombinant human IL-11 (100 ng/well), scFv-Fc comprising the VH and VL domains of the clones were added in a dilution series and antibody binding was detected using a polyclonal antibody detection system.
In the case of B1, the EC50 (commonly the concentration needed to bring the measured effect to its halfway point) was found to be 0.058 µg/mL.

With B2, the EC50 is 0.024 µg/mL.

B3: the EC50 is 0.028 µg/mL.

With B4, the EC50 was determined as 0.053 µg/mL.

Another test concerns the target T1, Human IL-11. In words: SPR (BIAcore T200) single cycle kinetics, human IL-11 on CM5 chip, 1:1 model. An excerpt:
HEK293 EBNDA cells were transfected with vectors encoding scFv corresponding to YU100-H01, 01A, 01G, 01I, 01L, 01Q, 01S, 01T, 01V, YU100-G08, 02A, 02G, 02I, 02L, 02Q, 02S, 02T or 02V.
For orientation: SPR reads the build-up and loss of mass on a sensor chip optically.
With B3, binding was put at a Kd of 3.51 nM; the koff (in general, the first-order rate constant of dissociation) came out at 0.0013 s⁻¹; the kon (commonly a measure of how fast the partners come together) amounted to 369000 M⁻¹ s⁻¹.

Turning to B5, binding was put at a Kd of 10.4 nM, the koff was found to be 0.00215 s⁻¹ and the kon turned out to be 207000 M⁻¹ s⁻¹.

As for B6, the Kd – broadly, a measure of binding affinity in units of concentration – is 1980 nM; the koff came to 0.0537 s⁻¹; the kon stood at 27200 M⁻¹ s⁻¹.

B7 returned a Kd of 4.46 nM, a koff of 0.00312 s⁻¹ and a kon of 699000 M⁻¹ s⁻¹.

B8 displayed a Kd of 4.36 nM, a koff of 0.00202 s⁻¹ and a kon of 463000 M⁻¹ s⁻¹.

B9 showed a Kd of 5.84 nM, a koff of 0.00249 s⁻¹ and a kon of 426000 M⁻¹ s⁻¹.

In turn, B10 came in with a dissociation constant Kd of 35 nM, a koff of 0.00207 s⁻¹ and an on-rate constant (kon) of 59200 M⁻¹ s⁻¹.

The molecule B11 displayed a Kd of 2.89 nM, an off-rate (koff) of 0.00238 s⁻¹ and a kon of 825000 M⁻¹ s⁻¹.

The molecule B12 yielded a Kd of 4.99 nM, a koff of 0.00639 s⁻¹ and a kon of 1.28e+06 M⁻¹ s⁻¹.

In a further test the target is T1, Human IL-11. In words: SPR, Single Cycle Kinetics, BIAcore T200; human IL-11 immobilised on CM5 chip, antibody in IgG1 format as analyte, 1:1 model.
As to B4, the Kd amounted to 42.3 nM, the koff is 0.000658 s⁻¹ and the kon was determined as 14800 M⁻¹ s⁻¹.

Molecule B13 showed a Kd of 84.7 nM, a koff of 0.000778 s⁻¹ and a kon of 9190 M⁻¹ s⁻¹.

B14 displayed a Kd of 17.1 nM, a koff of 0.0127 s⁻¹ and a kon of 742000 M⁻¹ s⁻¹.

Molecule B15 registered a Kd of 33.5 nM, a koff of 0.000526 s⁻¹ and a kon of 15700 M⁻¹ s⁻¹.

Turning to B16, the Kd is 104 nM, the koff was determined as 0.000966 s⁻¹ and the on-rate constant (kon) turned out to be 9290 M⁻¹ s⁻¹.

B17 yielded a Kd of 29.2 nM, a koff of 0.00269 s⁻¹ and a kon of 92100 M⁻¹ s⁻¹.

B18 displayed an equilibrium dissociation constant (Kd) of 107 nM, a koff of 0.000905 s⁻¹ and a kon of 8470 M⁻¹ s⁻¹.

Consider B19, for which the Kd amounted to 62.6 nM, the dissociation rate constant (koff) came out at 0.00081 s⁻¹ and the kon came to 12900 M⁻¹ s⁻¹.

For B20, the Kd came out at 560 nM, the koff came to 0.000986 s⁻¹ and the association rate constant (kon) is 1760 M⁻¹ s⁻¹.
